Tests used:
[1] = target: PIKfyve from pig brain cytosol; assay: proteo-liposome recruitment, western blot band quantification; details: 2 % input bar shown for reference, parent: est. 38, read off a plot
[2] = target: Vac14 from pig brain cytosol (UniProt F1S3E8); assay: as above; details: 2 % input bar shown for reference, parent: est. 21, read off a plot
Sequence of UniProt F1S3E8 (F1S3E8 entry or part of it): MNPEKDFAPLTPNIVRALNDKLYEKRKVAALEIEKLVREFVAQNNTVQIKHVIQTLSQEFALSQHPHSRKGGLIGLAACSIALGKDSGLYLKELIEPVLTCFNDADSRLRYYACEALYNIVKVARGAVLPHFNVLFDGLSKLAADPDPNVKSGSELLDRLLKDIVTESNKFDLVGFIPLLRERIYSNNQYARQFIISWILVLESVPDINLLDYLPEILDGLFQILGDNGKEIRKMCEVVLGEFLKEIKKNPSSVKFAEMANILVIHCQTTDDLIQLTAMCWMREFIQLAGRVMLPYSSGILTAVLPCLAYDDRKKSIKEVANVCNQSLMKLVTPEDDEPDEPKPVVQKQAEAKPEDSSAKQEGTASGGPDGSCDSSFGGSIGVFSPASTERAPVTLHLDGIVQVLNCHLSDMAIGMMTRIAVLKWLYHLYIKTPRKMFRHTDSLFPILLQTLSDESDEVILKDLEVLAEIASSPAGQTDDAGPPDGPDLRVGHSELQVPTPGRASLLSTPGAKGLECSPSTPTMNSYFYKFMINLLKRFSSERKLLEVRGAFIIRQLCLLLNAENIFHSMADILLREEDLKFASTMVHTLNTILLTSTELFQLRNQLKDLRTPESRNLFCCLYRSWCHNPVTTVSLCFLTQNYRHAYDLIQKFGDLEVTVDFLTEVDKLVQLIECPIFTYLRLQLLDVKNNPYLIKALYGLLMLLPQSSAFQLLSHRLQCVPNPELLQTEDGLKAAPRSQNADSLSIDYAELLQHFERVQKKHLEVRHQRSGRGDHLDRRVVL

| Substance | response [1] | response [2] |
| --- | --- | --- |
| APP intracellular domain (AICD), full length AICD N36A; P37A | 8.5 a.u. | 3.5 a.u. |
| APP intracellular domain (AICD), full length AICD Y34A; E35A | 2.5 a.u. | 1 a.u. |
| APP intracellular domain (AICD), full length AICD T38A; Y39A | 3 a.u. | 0.7 a.u. |

From PMC4706845
